Positions count from the first letter of the chain named.
B1: ICAP oligo (vl1427/vl1428) (dsDNA)
DNA 1: GCAACGCAATAAATGTGATCTAGATCACATTTTAGGCACCC
DNA 2: GGGGTGCCTAAAATGTGATCTAGATCACATTTATTGCGTTG
B2: ICAP 8,10:G-C (gd132/gd133) (dsDNA)
DNA 1: AGGAGGAATAAATCTCATCTAGATGAGATTTTAGAGGAGG
DNA 2: CCTCCTCTAAAATCTCATCTAGATGAGATTTATTCCTCCT
B3: ICAP 40-bp (gd126/gd127) (dsDNA)
DNA 1: B2 DNA 1 with C14G, C16G, G25C, G27C
DNA 2: B2 DNA 2 with C14G, C16G, G25C, G27C
B4: ICAP 10:G-C (gd130/gd131) (dsDNA)
DNA 1: B2 DNA 1 with C14G, G27C
DNA 2: B2 DNA 2 with C14G, G27C

Tests used:
[1] = target: T1, His-CRP (cAMP receptor protein) (Escherichia coli, UniProt P0ACJ8 1-210); assay: EMSA
[2] = target: T1, His-CRP (cAMP receptor protein); assay: DRaCALA
[3] = target: T1, His-CRP (cAMP receptor protein); assay: DRaCALA; remark: listed apart in the source
[4] = target: Maltose binding protein (MBP) (UniProt P0AEX9 27-396); assay: DRaCALA

T1 sequence (P0ACJ8 whole entry): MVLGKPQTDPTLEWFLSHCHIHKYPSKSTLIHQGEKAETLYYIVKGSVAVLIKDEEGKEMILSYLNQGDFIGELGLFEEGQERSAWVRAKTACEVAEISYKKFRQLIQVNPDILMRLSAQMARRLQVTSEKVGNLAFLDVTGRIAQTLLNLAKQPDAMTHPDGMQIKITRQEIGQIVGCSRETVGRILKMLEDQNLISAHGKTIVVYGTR

Row | Binder | Kd [1] [pM] | Kd [2] [pM] | binding result [3] | binding result [4]
1 | B1 | 81 | 36 | – | –
2 | B2 | – | – | no binding | –
3 | B3 | – | – | binds | no binding
4 | B4 | – | – | no binding | –
